Patent US20220112288A1 (published 2022)

How the values were obtained:
[1] = molecular target: T1, Recombinant human CD4 (R&D Systems, Cat. 10327-CD) (human, UniProt P01730 26-390, limits assumed); assay: BLI (Octet Red384), non-clonal supernatant on AMC sensor, 100 nM human CD4, 1:1 local fit;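 also: hybridoma antibodies captured from supernatant, single CD4 concentration as analyte, association and dissociation phases fitted together, giving single-point kinetic estimates per supernatant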
T1 construct: Bought soluble recombinant protein used as analyte at 100 nM; also called huCD4

[2] = molecular target: T1, Recombinant human CD4 (R&D Systems, …); assay: BLI (Octet Red384), non-clonal supernatant on AMC sensor, 100 nM human CD4
[3] = molecular target: T2, human CD8 on human pan T cells (CD4-negative population) (human, UniProt P01732 22-235; P10966 22-210); assay: flow cytometry, 20 nM antibody on human pan T cells, A647 anti-human IgG Fc; geomean ratio in CD4-negative population
T2 construct: whole, on cells; Endogenous CD8 on primary human pan T cells, read in the CD4-negative gate; also called CD8α/β
T2 sequence (P01732 22-235, chain 1 of 2): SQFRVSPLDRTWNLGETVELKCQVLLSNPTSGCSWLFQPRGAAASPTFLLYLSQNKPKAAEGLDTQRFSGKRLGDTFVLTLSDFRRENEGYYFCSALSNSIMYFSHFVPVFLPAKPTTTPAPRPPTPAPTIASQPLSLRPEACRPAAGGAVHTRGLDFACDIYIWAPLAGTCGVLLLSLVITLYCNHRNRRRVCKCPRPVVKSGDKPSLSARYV
T2 sequence (P10966 22-210, chain 2 of 2): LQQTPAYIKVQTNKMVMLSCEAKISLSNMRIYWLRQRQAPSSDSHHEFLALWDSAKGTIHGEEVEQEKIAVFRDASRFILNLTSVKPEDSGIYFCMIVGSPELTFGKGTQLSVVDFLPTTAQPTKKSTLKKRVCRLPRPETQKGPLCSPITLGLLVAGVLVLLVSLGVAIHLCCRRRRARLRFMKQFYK

Binder	Kd [1] [nM]	koff [1] [s⁻¹]	kon [1] [M⁻¹ s⁻¹]	Response [2]	Cell Binding to Human PanT Signal/Background (of CD4 negative population) [3]
75110_05G15A (antibody, V domains shown) VH: QVQLQESGPGLVKPSQTLSLTCTVSGGSISSGGYFWSWIRQHPGKGLEWIGCIYYSGSTYYIPSLKSRVTISVDTSKNQFSLKLRSVTAADTAVYYCARDGYDYWYFDLWGRGTLVTVSS VL: not shown	< 0.001	< 1e-07	78000	0.24	–
CD8B240 (antibody, human IgG1, kappa, Full-length human IgG1, kappa; V regions recovered from mouse hybridoma) heavy: not shown light: DIVMTQSPATLSVTPGDRVSLSCRASQSISDFLHWYQQKSHESPRLLIKYASQSISGIPSRFSGSGSGSDFTLTINSVEPEDVGVYYCQNGHSFPYTFGSGTKLEIKRTVAAPSVFIFPPSDEQLKSGTASVVCLLNNFYPREAKVQWKVDNALQSGNSQESVTEQDSKDSTYSLSSTLTLSKADYEKHKVYACEVTHQGLSSPVTKSFNRGEC	–	–	–	–	1310
CD8B200 (antibody, human IgG1, kappa, V domains shown, Full-length human IgG1, kappa; V regions recovered from mouse hybridoma) VH: EVQLQQSGAELVKPGASVKLSCKASGYTFTNYWIHWVKQRPGQGLEWIGNIDPSDSETHYNQKFKDKATLTVDKSSSTAYMQLISLTSEDSAVYYCASGLTGTGYYWGQGTTLTVSS VL: DIQMTQTTSSLSASLGDRVTITCRASQDISPYLNWYQQKPEGTIKLLIYYTSKLHSGVPSRFSGSGSGTDYSLTISNLEQEDIATYFCQQDNTLPYTFGSGTKLELKR	–	–	–	–	1990
CD8B246 (antibody, human IgG1, kappa, V domains shown, Full-length human IgG1, kappa; V regions recovered from mouse hybridoma) VH: QVQLKESGPGILKPSQTLSLTCSFSGFSLSTSGMNVGWIRQPSGKGLEWLAHIWWDDDKYYNPSLKSQLTISKDTSRNQVFLKITSVDTADTATYYCARRGNYGNYEFAYWGQGTTLTVSS VL: DIQMTQTTSSLSASLGDRVTISCRASQDIRNYLNWYQQKPDGTVKLLIYHTSRLHSGVPSRFSGSGSGTDYSLTISNLEQEDIATYFCQQGNTLPWTFGAGTKLELKR	–	–	–	–	1110
75110_06C16A (antibody, V domains shown, Non-clonal AlivaMab Mouse Kappa hybridoma supernatant, captured by anti-mouse IgG Fc (human V regions, mouse Fc)) VH: QVQLQESGPGLVTPSETLSLSCTVSGGSISDYYWSWIRQPGGKGLEWIGRIYSSGSTNYNPSLKSRVTMSVDTSKNQFSLKLSSVTAADTAVYFCARDREDYYYYGMDVWGQGTTVTVSS VL: DIQMTQSPSSLSASVGDRVTITCQASHDISNYLNWYQQKPGKAPKLLIYAASNLETGVPSRFSGSGSGTDFSFTISSLQPEDIATYYCQQYDHLPLTFGGGTKVEIK	9.7	0.0024	250000	0.07	–
75110_08D24A (antibody, V domains shown, Non-clonal AlivaMab Mouse Kappa hybridoma supernatant, captured by anti-mouse IgG Fc (human V regions, mouse Fc)) VH: QVQLQESGPGLVKPSETLSLTCTVSGGSISGFYWSWIRQPAGKGLEWIGRIYTSENTNYNPSLKSRVTMSVDTSKNQFSLKLSSVTAADTAVYYCARDREGYYYYGMDVWGQGTTVTVSS VL: DIQMTQSPSSLSASVGDRVTITCQASQDISNYLNWYQQKPGKAPKLLIYAASNLETGVPSRFSGSGSGTDFTFTISSLQPEDIATYYCQQYDSLPITFGQGTRLEIK	34	0.006	170000	0.21	–
75110_06G04A (antibody, V domains shown, Non-clonal AlivaMab Mouse Kappa hybridoma supernatant, captured by anti-mouse IgG Fc (human V regions, mouse Fc)) VH: QVQLLESGPGLVKPSETLSLTCTVSGGSISSYYWSWIRQPAGKGLEWIGRIYISGSTNYNPSLKSRVTMSIDTSENQFSLNLSSVTAADTAVYYCARELERPYYYGMDVWGQGTTVTVSS VL: DIQMTQSPSSLSASVGDRVTITCQASQDISNYLNWYQQKPGKAPKLLIYNASTLETGVPSRFSGSGSGTDFTFTISSLQPEDIATYYCQQYDNLPLTFGGGTKVEFK	14	0.001	75000	0.12	–
75110_06E14A (antibody, V domains shown, Non-clonal AlivaMab Mouse Kappa hybridoma supernatant, captured by anti-mouse IgG Fc (human V regions, mouse Fc)) VH: QVQLQESGPGLVKPSETLSLTCTVSGGSISNYFWSWIRQPAGKGLEWIGRIYSSGNTNYNPSLKSRVTMSVDTSKNQFSLKLSSVTAADTAVYYCARDREDYYYYGMDVWGQGTTVTVSS VL: DIQMTQSPSSLSASVGDRVTITCQASQDISNYLNWYQQKPGKAPKLLIYGASILETGVPSRFTGSGSGTDFTFTISSLQPEDIATYYCQQYDSLPITFGQGTRLEIK	12	0.002	170000	0.12	–
75110_08M20A (antibody, V domains shown, Non-clonal AlivaMab Mouse Kappa hybridoma supernatant, captured by anti-mouse IgG Fc (human V regions, mouse Fc)) VH: QVQLQESDPGLVKPSETLSLTCTVSGGSISSYYWSWIRQPAGKGLEWIGRIYASGSTNYNPSLKSRVTMSVDTSKNQFSLKLSSVTAADTAVYYCARDREGYYYYGMDVWGQGTTVTVSS VL: DIQMTQSPSSLSASVGDRVTITCQASQDISKYLNWYQQKPGKAPNLLIYAASNLETGVPSRFSGSGSGTDFTFTISSLQPEDIAAYYCQQYDSLPITFGQGTRLEIK	3.6	0.00053	150000	0.19	–
75110_08F20A (antibody, V domains shown, Non-clonal AlivaMab Mouse Kappa hybridoma supernatant, captured by anti-mouse IgG Fc (human V regions, mouse Fc)) VH: QVQLQESGPGLVKPSETLSLTCSVSGGSISTYYWSWIRQPAGKGLEWIGRICTTENTNYNPSLKSRVTMSIDSSKNQFSLKLSSVTAADTAVYYCARDLERLNYYGMDVWGQGATVTVSS VL: DIQMTQSPSSLSASVGDRVTITCQASQDISKYLNWYQQKPGIAPKLLIYDASNLETGVPSRFSGSGSGTDFTFTISSLQPEDFATYYCQQYDSLPITFGQGTRLEIK	1.9	0.00026	140000	0.32	–
75110_08G08A (antibody, V domains shown, Non-clonal AlivaMab Mouse Kappa hybridoma supernatant, captured by anti-mouse IgG Fc (human V regions, mouse Fc)) VH: QVQLQESGPGLVKPSETLSLTCSVSGGSISTYYWSWIRQPAGKGLEWIGRICTTENTNYNPSLKSRVTMSIDSSKNQFSLKLSSVTAADTAVYYCARDLERLNYYGMDVWGQGATVTVSS VL: DIQMTQSPSSLSASVGDRVTITCQASQDISNYLNWYQQKPGIAPKLLIYDASNLETGVPSRFSGSGSGTDFTFTISSLQPEDIATYYCQQYDSLPITFGQGTRLEIK	3.4	0.00096	280000	0.13	–
75110_07J02A (antibody, V domains shown, Non-clonal AlivaMab Mouse Kappa hybridoma supernatant, captured by anti-mouse IgG Fc (human V regions, mouse Fc)) VH: EVQLVESGGGLVQPGGSLRLSCAASGFTFSSYWMSWVRQAPGKGLEWVANIKEDGSEKYYVDSVKGRFTISRDNAKNSLYLQMNSLRAEDTAVYYCARDGSYSGYGMDVWGQGTTVTVSS VL: AIQMTQSPSSLSASVGDRVTITCRASQGIRNDLGWYQQKPGKAPKLLIYAASSLQSGVPSRFSGRGSGTDFALTISSLQPEDFATYYCLLDYNYPYTFGQGTRLEIK	0.56	3.83e-05	68400	0.13	–
75110_14G10A (antibody, V domains shown, Non-clonal AlivaMab Mouse Kappa hybridoma supernatant, captured by anti-mouse IgG Fc (human V regions, mouse Fc)) VH: EVQLVESGGGLVKPGGSLRLSCAASGFTFSSYSMNWVRQAPGKGLEWVSFISSSSSYIYYADSVKGRFTISRDNAKNSLYLQMNSLRAEDTAVYYCARERGDDYGDYEGAFDIWGQGTMVTVSS VL: not shown	< 0.001	< 1e-07	78800	0.0363	–

Continued, values first:

Kd [1] [nM]	koff [1] [s⁻¹]	kon [1] [M⁻¹ s⁻¹]	Response [2]	Cell Binding to Human PanT Signal/Background (of CD4 negative population) [3]	Binder
–	–	–	–	2440	CD8B191 (antibody, human IgG1, kappa, Full-length human IgG1, kappa; V regions recovered from mouse hybridoma) heavy: not shown light: DIVLTQSPATLSVTPGDRVSLSCRASQSISDFLHWYQQKSHESPRLLIKYASQSISGIPSRFSGSGSGSDFTLTINSVEPEDVGVYYCQNGHSFPYTFGSGTKLEIKRTVAAPSVFIFPPSDEQLKSGTASVVCLLNNFYPREAKVQWKVDNALQSGNSQESVTEQDSKDSTYSLSSTLTLSKADYEKHKVYACEVTHQGLSSPVTKSFNRGEC
–	–	–	–	1560	CD8B364 (antibody, human IgG1, kappa, V domains shown, Full-length human IgG1, kappa; V regions recovered from mouse hybridoma) VH: QVQLQQPGAELVKPGASVKLSCKASGYTFTSYWMHWVNRRPGQGLEWIGEINPSNGDSYYNEKFKRKATLTVDISSSTAYMQLSSLTSEDSAVYYCTRSMYYDGRAGAYWGQGTTVTVSS VL: DIVLTQSPASLSVATGEKVTIRCITSTDIDDDMNWYQQKPGEPPKLLISEGNTLRPGVPSRFSSSGYGTDFVFTIENTLSEDVADYYCLQSDNMPLTFGAGTKLELKR
–	–	–	–	923	CD8B304 (antibody, human IgG1, kappa, V domains shown, Full-length human IgG1, kappa; V regions recovered from mouse hybridoma) VH: QVTLKESGPGILKPSQTLSLTCSFSGFSLSTSGMNVGWIRQPSGKGLEWLAHIWWDDDKYYNPSLKSQLTISKDTSRNQVFLKITSVDTADTATYYCARRGNYGNYEFAYWGQGTTVTVSS VL: DIQMTQTTSSLSASLGDRVTISCRASQDIRNYLNWYQQKPDGTVKLLIYHTSRLHSGVPSRFSGSGSGTDYSLTISNLDQEDIATYFCQQGNTLPWTFGAGTKLELKR
–	–	–	–	2500	CD8B270 (antibody, human IgG1, kappa, V domains shown, Full-length human IgG1, kappa; V regions recovered from mouse hybridoma) VH: QVQLQQPGAELVKPGASVMLSCKASGYTFTNYWMHWVKQRPGQGLEWIGNIDPSDSETHYNQKFKDKATLTVDKSSSTAYMQLSSLTSEDSAVYYCASGLTGTGYYWGQGTTLTVSS VL: DIQMTQTTSSLSASLGDRVTITCRASQDIRPYLNWYQQKPEGTIKLLIYFTSKLHSGVPSRFSGSGSGTDYSLTISNLEQEDIATYFCQQDNTLPYTFGSGTKLELKR
–	–	–	–	827	CD8B213 (antibody, human IgG1, kappa, V domains shown, Full-length human IgG1, kappa; V regions recovered from mouse hybridoma) VH: EVQLQQSGPELVKPGDSMKMSCKASGYIFTDYYMDWVKQSHGKSLEWIGYIYPNNGITSYNQKFKGRATLTIDKSSSTAYMELHSLTSEDSAVYYCARSIYYDHGGGFPYWGQGTSVTVSS VL: DIVLTQSQKFMSTSVGDRVSVTCKASQNVDKYVAWYQQKPGQSPKALIYSASYRYSGVPDRFTGSGSGTDFTLTISNVQSEDLAEYFCQQYNTYPSFGSGTKLEMKR
–	–	–	–	1050	CD8B361 (antibody, human IgG1, kappa, V domains shown, Full-length human IgG1, kappa; V regions recovered from mouse hybridoma; also called CD8B36I) VH: EVQLQQSGPELVKPGNSVKMSCKASGYTFTDYYMDWVKQSHGTSLEWIGYIYPNNGDTRYNQKFKDKATLTVDKSSSTAYMELHSLTSEDSAVFYCARSIYYDHGGGFPYWGQGTLVTVSA VL: DIVMTQSQKFMSTSVGDRVSVTCKASQNVGTYVAWYQQKPGQSPKALIYSASYRYSGVPDRFTGSGSGTDFTLTINNVQSEDLAEYLCQQYNSYPTFGGGTRLEIKR
